Numbering of substitutions follows the chain as printed.
T1: HCV Core1-169 (hepatitis C virus (HCV-1), UniProt P26664 1-169)
T1 sequence: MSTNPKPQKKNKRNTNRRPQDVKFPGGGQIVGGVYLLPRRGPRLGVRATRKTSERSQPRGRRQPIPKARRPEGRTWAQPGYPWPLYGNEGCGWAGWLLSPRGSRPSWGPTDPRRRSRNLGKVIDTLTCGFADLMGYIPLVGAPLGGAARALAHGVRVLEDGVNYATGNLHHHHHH

T2: HCV bt-141-161 (Peptide 2, HCVc 141-161) (Hepatitis C virus (numbering per HCV-1), biotin (carboxy-terminal per; N-terminal per))
T2 peptide: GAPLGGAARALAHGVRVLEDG

T3: HCV bt-134-154 (Peptide 1, HCVc 134-154) (Hepatitis C virus (numbering per HCV-1), biotin (carboxy-terminal per; N-terminal per))
T3 peptide: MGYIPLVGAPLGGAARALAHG

T4: HCV bt-151-171 (Peptide 3, HCVc 151-171) (Hepatitis C virus (numbering per HCV-1), biotin (carboxy-terminal per; N-terminal per))
T4 peptide: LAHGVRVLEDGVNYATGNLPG

B1: HCV 208A-874 (antibody, V domains shown)
VH: QVQLQQPGAELVKPGASVKLSCKASGYTLSSYWMHWVKQRPGQGLEWIGEIHPSDSYTSYNQKFKDKATLTVDKSSSTAYMQLSSLTSEDSAVYYCARGGYYRYDEFAYWGQGTLVTVSA
VL: DIVMTQSHKFMSTSIGDRVSITCKASQNVSPAVAWYQQKPGQSPKLLIYSASSRYTGVPDRFTGSGSGTAFTFTISSVQAEDLAVYFCQQHFSTPWTFGGGTMLEIKR
B2: HCV 208B-515 (antibody, V domains shown)
VH: QVQLQQPGAELVKPGASLKLSCRASGYTFTSYWIHWVKQRPGQGLEWIGEIDPSDSYTNYNQKFKGKATLTVDKSSRAAYMQLSSLTSEDSAVYYCARHYYGVFDSWGQGTKLTVSS
VL: QIVFTQYPAIMSASLGERVTMTCTASSSVTSSYLHWFQQKPGSSPKLWIYSTSNPGSGVPARFSGRGSGTSYSLSISSMEAEDAATYYCLQFHRSPWTFGGGTKLEIRR
B3: HCV 208B-327 (antibody, V domains shown)
VH: EVQLVESGGGLVKPGGSLKLSCAASGFTFSDSYMYWVRQTPDQRLEWVATISDGGSYTFYPDSVKGRFTISRDNAQNNLYLQMSSLKSEDTAMYYCASPHAGYFGWFAYWGRGTLVTVSA
VL: DIVMTQAAFSNPVTPGTSVSISCRSSKSLLHSNGITYLYWYLQKPGQSPQLLIYQMSKIASGVPDRFRSSGSGTDFTLRISRVEAADVGVYYCAQNLELPWTFGGGTKLEIKR
B4: HCV 208A-422 (antibody, V domains shown)
VH: DVQLQESGPGLVNPSQSLSLTCSVTGYSITSGYYWIWIQQSPGNKLEWMGYIKYDGGNNYSPSLKNRISIARDTSKNQCFLKLNSVTIEDTATYYCTRGSDSFDYWGQGTTLTVSS
VL: DIVLTQSPASLAVSLGQRAIISCKASQSVSFAGTNLMHWYQQKPGQQPKLLIYRASNLETGVPTRFSGSGSRTDFTLNIHPVEEDDAATYYCQQSREYYTFGGGTKLEIKR
B5: HCV 208A-442 (antibody, V domains shown)
VH: B4 VH with Q39R, S41F, C79F
VL: B4 VL
B6: HCV 208B-178 (antibody, V domains shown)
VH: DVKLVESGGGLVKLGGSLKLSCAASGFTFSSYYMSWVRQTPEKRLELVAAINSNGGSTYYPDTVKGRFTISRDNAKNTLYLQMSSLKSEDTALYYCARHGGLGRRDWYFDVWGAGTTVTVSS
VL: DIVLTQSPASLAVSLGQRATISCRASESVDNYGISFMHWYQQKPGQPPKLLIYRASNLESGIPARFSGSGSRTDFTLTINPVETDDVATYYCQQSNKDPFTFGSGAKLEIKR
B7: HCV 208A-126 (antibody, V domains shown)
VH: QLQQSGPVLVKPGASVMISCKTSGYTFTENAMHWVKQSHGKSLEWIGGVNPNNGDTIFNQKFKGKATLTVDKSSNTAFTELRSLPSEESTVYYCVRRGLDFFDYWGQGTSVTVSS
VL: DIVLTQSPASLAVSLGQRATISCRASQSVSTSRYSYMHWYQQKPGQPPKLLIKYASNLESGVPARFSGSGSGTDFTLNIHPVAEEDTAAYYCQHSWEFPFTFGSGTKLEIKR
B8: HCV 208A-210 (antibody, V domains shown)
VH: QVQLQQSGPELVKPGASMRISCKASGYTFTSYYVHWIKQRPGQGLEWIGCIYPGDVNTDYNEKFKGKATLTADKSSSTAYMQVSTLTSEDSAIYFCVLYYYGSFAYWGQGTLVTVSA
VL: EIVLTQSPAITAASLGQNVTITCRASSSVSYMHWYRQKSGTSPQLWIYEISRRASGVPARFRASGSGTSYSLTISSMEAEDAAIYYCQQWNYPLTFGAGTKLEVKR
B9: HCV 208A-692 (antibody, V domains shown)
VH: QGQMQQSGAELAKPGASVKLSCKTSGFTFSSSYISWLKQKPGQSLEWIAWIFAGTGNTNYNQKFTDKAQLTVDTSSSTAYMQLSSLTTEDSAIYYCAISGTGFTYWGQGTLVTVSA
VL: EVLMTQSPLSLPVSLGDQASISCRSSQSLEHSNGNTYLEWFLQRPGQPPKLLIYKVSSRFSGVPDRFSGSGSGTDFTLKISRVEAEDLGVYYCFQGSHVPFTFGSGTKLAIKR
B10: HCV 208B-408 (antibody, V domains shown)
VH: EVKLVESGGGLVQPGGSLRLSCASSGFTFTDYYMSWVRQPPGKALEWLGFIRNKAYGYTTEFSASVNGRFTISRDDSQSVPYLQMNTLRAEDSATYYCARVLYYDYGGFAYWGQGTLVTVST
VL: DIQMTQSPASLSASVGETVTITCRASGNIHTYLAWYQQKQGKSPQLLVYNANTLADGVPSRFSGSGSGTQFSLKINSLQPDDFGSYYCQHFWSAPWTFGGGTQLEIKR
B11: HCV 208A-207 (antibody, V domains shown)
VH: QGQLQQPGAEFVKPGASLKLSCRASGYTFTSYWIHWVKQRPGQGLEWIGEIDPSDSYINQNQKFRGKATLTVDKSSSTAYMELSGLTSEDSAVYYCARHYYGVLDSWGQGTTLTVSS
VL: DIVLTQSPATLSVTPGDRVSLSCRASQRIYNYLHWYQQKSHESPRLLTKYASQSISGIPSRFSGSGSGTDFILTINSVETEDFGMYFCQQSNSWPLTFGAGTKLELRR
B12: HCV 208B-911 (antibody, V domains shown)
VH: QVHLQQPGAELVRPGVSVKLSCKASGYTFTTYSINWMKQRPGQGLEWIGNIYPSTSHTNYNQKFRDKATMTVDKSSSTAYMQLSSPTSEDSAVYYCTINAYSMDYWGQGTSVTVSS
VL: QIVLTQSPEIMSASPGEKVTITCSASSSVSFMYWFQQKPGTSPKLWIYITSNLASGVPTRFSGSGSGTSYSLTISRMEAEDAATYYCQQRSSFPYTFGGGTKLEMKR
B13: HCV 208A-210 (antibody, V domains shown)
VH: B8 VH
VL: B8 VL

The binders below were run against T1, HCV Core1-169 (assay: SPR sandwich, capture mAb C11-9).

**Q.** Which expected percent binding does the source give for B1 here?
**A.** The expected percent binding was ≤ 1%.

**Q.** Which expected percent binding does the source give for B2 here?
**A.** The expected percent binding was ≤ 1%.

**Q.** How did the expected percent binding turn out when B3 was run?
**A.** The expected percent binding was ≤ 1%.

**Q.** For B4, which expected percent binding is on record?
**A.** The expected percent binding was ≤ 1%.

**Q.** B5 was tested. Which expected percent binding did it give?
**A.** Its expected percent binding is ≤ 1%.

**Q.** Which expected percent binding does the source give for B6 here?
**A.** Its expected percent binding is ≤ 1%.

**Q.** With B7 as the binder, how does the expected percent binding read?
**A.** Its expected percent binding is ≤ 1%.

**Q.** B8 was tested. Which expected percent binding did it give?
**A.** The expected percent binding was ≤ 1%.

**Q.** Which expected percent binding does the source give for B9 here?
**A.** Its expected percent binding is ≤ 1%.

**Q.** How did the expected percent binding turn out when B10 was run?
**A.** Its expected percent binding is ≤ 1%.

What follows are binders tested against T1, HCV Core1-169 (assay: SPR sandwich, capture mAb C11-3).

**Q.** Which expected percent binding does the source give for B1 here?
**A.** The expected percent binding was ≤ 1%.

**Q.** B2 was tested. Which expected percent binding did it give?
**A.** Its expected percent binding is ≤ 1%.

**Q.** For B3, which expected percent binding is on record?
**A.** Its expected percent binding is ≤ 1%.

**Q.** Which expected percent binding does the source give for B4 here?
**A.** The expected percent binding was ≤ 1%.

**Q.** How did the expected percent binding turn out when B5 was run?
**A.** Its expected percent binding is ≤ 1%.

**Q.** Which expected percent binding does the source give for B6 here?
**A.** Its expected percent binding is ≤ 1%.

**Q.** How did the expected percent binding turn out when B7 was run?
**A.** Its expected percent binding is 1.2%.

**Q.** Which expected percent binding does the source give for B8 here?
**A.** Its expected percent binding is 1.2%.

**Q.** B9 was tested. Which expected percent binding did it give?
**A.** Its expected percent binding is ≤ 1%.

**Q.** B10 was tested. Which expected percent binding did it give?
**A.** Its expected percent binding is ≤ 1%.

What follows are binders tested against T1, HCV Core1-169 (assay: SPR sandwich, capture mAb C11-7).

**Q.** How did the expected percent binding turn out when B1 was run?
**A.** The expected percent binding was ≤ 1%.

**Q.** How did the expected percent binding turn out when B2 was run?
**A.** Its expected percent binding is ≤ 1%.

**Q.** How did the expected percent binding turn out when B3 was run?
**A.** Its expected percent binding is ≤ 1%.

**Q.** How did the expected percent binding turn out when B4 was run?
**A.** The expected percent binding was ≤ 1%.

**Q.** For B5, which expected percent binding is on record?
**A.** Its expected percent binding is 1.6%.

**Q.** Which expected percent binding does the source give for B6 here?
**A.** The expected percent binding was 1.7%.

**Q.** B7 was tested. Which expected percent binding did it give?
**A.** The expected percent binding was 2%.

**Q.** With B8 as the binder, how does the expected percent binding read?
**A.** Its expected percent binding is 1.6%.

**Q.** Which expected percent binding does the source give for B9 here?
**A.** The expected percent binding was ≤ 1%.

**Q.** With B10 as the binder, how does the expected percent binding read?
**A.** The expected percent binding was ≤ 1%.

The binders below were run against T1, HCV Core1-169 (assay: SPR sandwich, capture mAb C11-14).

**Q.** For B1, which expected percent binding is on record?
**A.** Its expected percent binding is ≤ 1%.

**Q.** B2 was tested. Which expected percent binding did it give?
**A.** Its expected percent binding is ≤ 1%.

**Q.** Which expected percent binding does the source give for B3 here?
**A.** The expected percent binding was ≤ 1%.

**Q.** Which expected percent binding does the source give for B4 here?
**A.** The expected percent binding was ≤ 1%.

**Q.** Which expected percent binding does the source give for B5 here?
**A.** The expected percent binding was ≤ 1%.

**Q.** B6 was tested. Which expected percent binding did it give?
**A.** The expected percent binding was ≤ 1%.

**Q.** For B7, which expected percent binding is on record?
**A.** The expected percent binding was 1.3%.

**Q.** Which expected percent binding does the source give for B8 here?
**A.** Its expected percent binding is ≤ 1%.

**Q.** How did the expected percent binding turn out when B9 was run?
**A.** The expected percent binding was ≤ 1%.

**Q.** How did the expected percent binding turn out when B10 was run?
**A.** Its expected percent binding is ≤ 1%.

Biological target: T2, HCV bt-141-161 (Peptide 2, HCVc 141-161)
Assay: EIA, captured mAb + biotin peptide

**Q.** How did the “Reactivity (OD 492 nm)” value turn out when B11 was run?
**A.** Its value is 0.17 OD units.

**Q.** B12 was tested. Which “Reactivity (OD 492 nm)” value did it give?
**A.** The value was 0.09 OD units.

**Q.** B13 was tested. Which “Reactivity (OD 492 nm)” value did it give?
**A.** The value was 1.15 OD units.

Biological target: T3, HCV bt-134-154 (Peptide 1, HCVc 134-154)
Assay: EIA, captured mAb + biotin peptide

**Q.** With B11 as the binder, how does the “Reactivity (OD 492 nm)” value read?
**A.** Its value is 1.24 OD units.

**Q.** B12 was tested. Which “Reactivity (OD 492 nm)” value did it give?
**A.** The value was 0.09 OD units.

**Q.** With B13 as the binder, how does the “Reactivity (OD 492 nm)” value read?
**A.** The value was 0.06 OD units.

Biological target: T4, HCV bt-151-171 (Peptide 3, HCVc 151-171)
Assay: EIA, captured mAb + biotin peptide

**Q.** Which “Reactivity (OD 492 nm)” value does the source give for B11 here?
**A.** Its value is 0.08 OD units.

**Q.** How did the “Reactivity (OD 492 nm)” value turn out when B12 was run?
**A.** The value was 0.71 OD units.

**Q.** How did the “Reactivity (OD 492 nm)” value turn out when B13 was run?
**A.** Its value is 0.05 OD units.

From patent publication US20170052184A1 (published 2017)
